From publication PMC8420271 (The EMBO Journal, 2021) come the findings set out here.

B1: caspase-1 p20 (C285A)-His / p10-His complex (complex)
chain 1: NPAMPTSSGSEGNVKLCSLEEAQRIWKQKSAEIYPIMDKSSRTRLALIICNEEFDSIPRRTGAEVDITGMTMLLQNLGYSVDVKKNLTASDMTTELEAFAHRPEHKTSDSTFLVFMSHGIREGICGKKHSEQVPDILQLNAIFNMLNTKNCPSLKDKPKVIIIQAARGDSPGVVWFKD
chain 2: AIKKAHIEKDFIAFCSSTPDNVSWRHPTMGSVFIGRLIEHMQEYACSCDVEEIFRKVRFSFEQPDGRAQMPTTERVTLTRCFYLFPGH
B2: GST-GSDMD truncation lacking both aa 302-310 and aa 350-368 (natural protein)
chain: MGSAFERVVRRVVQELDHGGEFIPVTSLQSSTGFQPYCLVVRKPSSSWFWKPRYKCVNLSIKDILEPDAAEPDVQRGRSFHFYDAMDGQIQGSVELAAPGQAKIAGGAAVSDSSSTSMNVYSLSVDPNTWQTLLHERHLRQPEHKVLQQLRSRGDNVYVVTEVLQTQKEVEVTRTHKREGSGRFSLPGATCLQGEGQGHLSQKKTVTIPSGSTLAFRVAQLVIDSDLDVLLFPDKKQRTFQPPATGHKRSTSEGAWPQLPSGLSMMRCLHNFLTDGVPAEGAFTEDFQGLRAEVETISKELLLLEGLEGVLRDQLALRALEEALEQGQSLGPVEPLDGPAIPVVYLLGALTMLSETQHKLLAEALESQTLLGPLELVGSLLEQSAPWQERSTMSLPPGLLGNSWGEGAPAWVLLDECGLELGEDTPHVCWEPQAQGRMCALYASLALLSGLSQEPH
B3: GST-GSDMD truncation lacking aa 302-310 (natural protein)
chain: MGSAFERVVRRVVQELDHGGEFIPVTSLQSSTGFQPYCLVVRKPSSSWFWKPRYKCVNLSIKDILEPDAAEPDVQRGRSFHFYDAMDGQIQGSVELAAPGQAKIAGGAAVSDSSSTSMNVYSLSVDPNTWQTLLHERHLRQPEHKVLQQLRSRGDNVYVVTEVLQTQKEVEVTRTHKREGSGRFSLPGATCLQGEGQGHLSQKKTVTIPSGSTLAFRVAQLVIDSDLDVLLFPDKKQRTFQPPATGHKRSTSEGAWPQLPSGLSMMRCLHNFLTDGVPAEGAFTEDFQGLRAEVETISKELLLLEGLEGVLRDQLALRALEEALEQGQSLGPVEPLDGPAGAVLECLVLSSGMLVPELAIPVVYLLGALTMLSETQHKLLAEALESQTLLGPLELVGSLLEQSAPWQERSTMSLPPGLLGNSWGEGAPAWVLLDECGLELGEDTPHVCWEPQAQGRMCALYASLALLSGLSQEPH
B4: GST-GSDMD truncation lacking aa 350-368 (natural protein)
chain: MGSAFERVVRRVVQELDHGGEFIPVTSLQSSTGFQPYCLVVRKPSSSWFWKPRYKCVNLSIKDILEPDAAEPDVQRGRSFHFYDAMDGQIQGSVELAAPGQAKIAGGAAVSDSSSTSMNVYSLSVDPNTWQTLLHERHLRQPEHKVLQQLRSRGDNVYVVTEVLQTQKEVEVTRTHKREGSGRFSLPGATCLQGEGQGHLSQKKTVTIPSGSTLAFRVAQLVIDSDLDVLLFPDKKQRTFQPPATGHKRSTSEGAWPQLPSGLSMMRCLHNFLTDGVPAEGAFTEDFQGLRAEVETISKELELLDRELCQLLLEGLEGVLRDQLALRALEEALEQGQSLGPVEPLDGPAIPVVYLLGALTMLSETQHKLLAEALESQTLLGPLELVGSLLEQSAPWQERSTMSLPPGLLGNSWGEGAPAWVLLDECGLELGEDTPHVCWEPQAQGRMCALYASLALLSGLSQEPH
B5: GST-GSDMD (full-length human GSDMD) (natural protein)
chain: MGSAFERVVRRVVQELDHGGEFIPVTSLQSSTGFQPYCLVVRKPSSSWFWKPRYKCVNLSIKDILEPDAAEPDVQRGRSFHFYDAMDGQIQGSVELAAPGQAKIAGGAAVSDSSSTSMNVYSLSVDPNTWQTLLHERHLRQPEHKVLQQLRSRGDNVYVVTEVLQTQKEVEVTRTHKREGSGRFSLPGATCLQGEGQGHLSQKKTVTIPSGSTLAFRVAQLVIDSDLDVLLFPDKKQRTFQPPATGHKRSTSEGAWPQLPSGLSMMRCLHNFLTDGVPAEGAFTEDFQGLRAEVETISKELELLDRELCQLLLEGLEGVLRDQLALRALEEALEQGQSLGPVEPLDGPAGAVLECLVLSSGMLVPELAIPVVYLLGALTMLSETQHKLLAEALESQTLLGPLELVGSLLEQSAPWQERSTMSLPPGLLGNSWGEGAPAWVLLDECGLELGEDTPHVCWEPQAQGRMCALYASLALLSGLSQEPH
B6: FLAG-tagged full-length GSDMD (natural protein)
chain: MGSAFERVVRRVVQELDHGGEFIPVTSLQSSTGFQPYCLVVRKPSSSWFWKPRYKCVNLSIKDILEPDAAEPDVQRGRSFHFYDAMDGQIQGSVELAAPGQAKIAGGAAVSDSSSTSMNVYSLSVDPNTWQTLLHERHLRQPEHKVLQQLRSRGDNVYVVTEVLQTQKEVEVTRTHKREGSGRFSLPGATCLQGEGQGHLSQKKTVTIPSGSTLAFRVAQLVIDSDLDVLLFPDKKQRTFQPPATGHKRSTSEGAWPQLPSGLSMMRCLHNFLTDGVPAEGAFTEDFQGLRAEVETISKELELLDRELCQLLLEGLEGVLRDQLALRALEEALEQGQSLGPVEPLDGPAGAVLECLVLSSGMLVPELAIPVVYLLGALTMLSETQHKLLAEALESQTLLGPLELVGSLLEQSAPWQERSTMSLPPGLLGNSWGEGAPAWVLLDECGLELGEDTPHVCWEPQAQGRMCALYASLALLSGLSQEPH

The first test concerns the target B5. Put plainly: pull-down.
On to B1, for which the binding result was “binds”.

Another test addresses His-tagged SARS-CoV-2 nucleocapsid (SARS-CoV-2, UniProt P0DTC9 1-419). Put plainly: pull-down.
As for B2, the binding result is on record as “binds”.
Still for that read-out and setting: the value for B3 was “binds”; that for MMRCLHNFLTDGVPAEGAFT (domain or fragment) [GST-tagged GSDMD linker containing amino acids 265-284] was “binds”.
Same read-out and setting: under PSGLSMMRCLHNFLTDGVPAEGAFTEDFQGL (domain or fragment) [GST-tagged GSDMD linker containing amino acids 260-290] stands “binds”; under HNFLTDGVPAE (domain or fragment) [GST-tagged GSDMD linker containing amino acids 270-280], “binds”.
On the same count and under the same terms, the value for B4 was “binds”; that for B5 was “binds”.

In the next test the target is Myc-tagged SARS-CoV-2 nucleocapsid (SARS-CoV-2, UniProt P0DTC9 1-419). Description: co-IP.
As for B6, the binding result is “binds”.
